Changes are numbered by the printed parent chain. Values belong to the binder of their own block, whether it stands above or below them.
What was measured:
[1] = biological target: EGFRvIII (full length, expressed by cells: NR6 M, H1477, 300.19/EGFRvIII) (human, UniProt P00533 298-1210); experiment: cell-based or functional assay
[2] = biological target: T1, EGFRvIII PEP3 peptide conjugated to OVA (EGFRvIII肽-OVA) (human, Cys 14 coupled to maleimide-activated ovalbumin (peptide:OVA 14.5:1)); experiment: binding to pep3 (XenoMax screen)
T1 construct: also called EGFRvIII peptide-OVA; VIII-pep-OVA
T1 peptide: LEEKKGNYVVTDHC

- %内在化 [1]: 72.4%
B1: AB-EGFRvIII-XG1-095 (antibody, human IgG1, V domains shown)
VH: QVQLQESGPFLVKPSQTLSLTCTVSGGSISSGGYYWSWIRQHPGKGLEWIGFIYYRGNTYYNPSLKSRVTISVDTSKNQFSLKLSSVTAADTAVYYCARDGYCSRTGCYGGWFDPWGQGTLVTVSP
VL: DIVMTQTPLSSPVTLGQPASISCRSSQSLIHTDGNIYLSWLQQRPGQPPRLLIYKISNRFSGVPDRFSGSGAGTDFTLKISRVEAEDVGVYYCMQGTQFPITFGQGTRLEIK

- %内在化 [1]: 20%
B2: SC-EGFRvIII-XG2-150 (antibody, human IgG1, V domains shown)
VH: QVQLQQSGPGLVKPSQTLSLTCAISGDSVSSYSSAWNWIRQSPSRGLEWLGRAYHRSRWYYEYAVSVKSRINITPDTSKNQFSLQLNSVTPEDTAVYYCARGSRFDYWGQGTLVTVSS
VL: B1 VL with I30V, T32R, I36T, V90I, Y92F, Q95H, G96T, I101W, L109V

- %内在化 [1]: 80.8%
B3: SC-EGFRvIII-XG1-139 (antibody, human IgG1, V domains shown)
VH: EVQVLESGGGLVQPGGSLRLSCAASGFTFSSYAMSWVRQAPGKGLEWVSAISGSGGSTNYADSVKGRFTISRDNSKNTLYLQMNSLRAEDTAVYYCAGSSGWSEYWGQGTLVTVSS
VL: DIQMTQSPSSLSASVGDRVTITCRASQGIRNNLAWYQQKPGKAPKRLIYAASNLQSGVPSRFTGSGSGTEFTLIVSSLQPEDFATYYCLQHHSYPLTSGGGTKVEIK

- binding result [2]: binds
- %内在化 [1]: 16.7%
B4: SC-EGFRvIII-XG1-250 (antibody, human IgG1, V domains shown)
VH: B3 VH with V2G, V4L, L11W, G16E, M83V, A88V
VL: DIQMTQSPSSLSASVGDSVTITCRTSQGIRKNLGWYQQKPGKAPKRLIYAASSLQSGVPSRFSGSGSGTEFTLTISRLQPEDFATYYCLQHHSYPLTFGGGTRVEIR
notes: also called sc250; SC250

- %内在化 [1]: 21.6%
B5: SC-EGFRvIII-XG1-211 (antibody, human IgG1, V domains shown)
VH: QVQLVESGGGVVQPGRSLRLSCVASGFTLSSYGMHWVRQAPGKGLEWVAVTSYDGSKKDYADSAKGRFTISRDNSKNTLYLQMNSLRAEDTAVYYCVSEGYCSSSSCYKYYYYGMDVWGQGTTVTVSS
VL: DIVMTQSPLSLPVTPGEPASISCRSSQSLLYRNGNNYLDWYLQRPGQSPQLLIYLGSNRASGVPDRFSGSGSGTDFTLKISRVEAEDVGVYYCMQALQTPRTFGQGTKVEIK

- binding result [2]: binds
B6: SC-EGFRvIII-XG1-131 (antibody, V domains shown)
VH: QVQLVESGGGVVQSGRSLRLSCAASGFTFRNYGMHWVRQAPGKGLEWVAVIWYDGSDKYYADSVRGRFTISRDNSKNTLYLQMNSLRAEDTAVYYCARDGYDILTGNPRDFDYWGQGTLVTVSS
VL: DTVMTQTPLSSHVTLGQPASISCRSSQSLVHSDGNTYLSWLQQRPGQPPRLLIYRISRRFSGVPDRFSGSGAGTDFTLEISRVEAEDVGVYYCMQSTHVPWTFGQGTKVEIK
notes: Recombinant human antibody (XenoMax)

- %内在化 [1]: 82.5%
B7: AB-EGFRvIII-XG1K-13.1.2 (antibody, V domains shown)
VH: QVQLVESGGGVVQPGRSLRLSCAASGFTFSSYGMHWVRQAPGKGLEWVAVIWYDGSNKYYVDSVKGRFTISRDNSKNTLYLQMNSLRAEDTAVYYCARDGWQQLAPFDYWGQGTLVTVSS
VL: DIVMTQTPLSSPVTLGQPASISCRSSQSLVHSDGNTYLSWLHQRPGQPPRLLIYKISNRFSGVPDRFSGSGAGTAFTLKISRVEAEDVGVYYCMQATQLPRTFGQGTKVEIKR
notes: Human IgG1 kappa from a XenoMouse G1 hybridoma; Residue numbers of the mutants count on this running numbering

- %内在化 [1]: 20.1%
B8: SC-EGFRvIII-XG2-170 (antibody, human IgG1, V domains shown)
VH: QVQLQQSGPGLVKPSQTLSLTCAISGDSVSSNNAAWNWIRQSPARGLEWLGRTYYRSKWYNDYVVSVKSRITINPDTSKNQFSLQLNSVTPEDTAVYYCVRATAFDYWGQGTLVTVSS
VL: AIVLTQTPLSSPVTLGQPASISCRSSQSLVHRDGNTYLSWLQQRPGQPPRLLIYKISNRFSGVPDRFSGSGAGTDFTLKISRVEPDDVGVYYCMHTTQLPWTFGQGTKVEIK
